Measured values: US8791249B2, “Nucleic acid encoding humanized c-kit antibody” (Amgen Inc., priority 2006, dated 2014)
Several values for one entry are separate records, joined by “and”; a condition that tells them apart may be missing. Equal entries are not always repeated. Entries after “also recorded” stand apart in the source; their conditions may differ.

Experiments:
[1] = tested on: c-Kit dimer; test: Biacore binding to c-Kit dimer versus soluble monomer; design: species or system human; conditions: Biacore
Source text: Activation of c-Kit upon binding by stem cell factor (SCF) leads to dimerization/oligomerization, autophosphorylation and receptor internalization, most likely through a clathrin-dependent pathway. The SR-1 monoclonal antibody binds the c-Kit dimer with 1000-fold higher affinity compared to the soluble c-Kit extra-cellular domain monomer as determined by Biacore.
Carbohydrates present on a glycoprotein can influence biological and functional properties. […] This is an important characteristic not predicted to be translated with certainty with the humanization and as the soluble c-Kit monomer is less likely to act as a sink for the antibody in vivo.

[2] = tested on: human CD34+, CD 117+ (c-Kit) bone marrow cells; test: CD34+ bone marrow cell CFU assay (SCF/GM-CSF colony formation), human; assay type: cell-based; conditions: 1.0 ug/mL
Description: (§1) The SR-1 monoclonal antibody was selected based on its equivalent functional potency at human and monkey c-Kit in the CD34+ bone marrow cell CFU assay (inhibition at 1.0 ug/mL), and its monkey PK.

[3] = tested on: monkey c-Kit; test: CD34+ bone marrow cell CFU assay, monkey; assay type: cell-based; conditions: 1.0 ug/mL
Description: as §1

[4] = tested on: basal lung and colon mast cells; test: Depletion of basal lung and colon mast cells in monkey; assay type: in vivo
Description: as §1
[…] […] For practical reasons, basal pulmonary mast cells were evaluated on day 28 at the time of necropsy and the termination of the study.

[5] = tested on: hematopoiesis; test: Hematopoiesis in SR-1 dose-ranging study; assay type: in vivo, African green monkey
Description: (§2) SR-1 was used in dose-ranging studies from 3 to 30 mg/Kg administered once weekly for 4 weeks to determine the exposures required to inhibit hematopoiesis, spermatogenesis and active melanogenesis. A full blood panel including cell differentials was performed on blood samples taken at baseline, day 4, 7, 14, 21 and 28 after the start of the study. Analysis of freshly isolated blood samples was performed at the Queen Elizabeth Hospital Clinical Hematology lab, Barbados.
(§3) The effect of 3-30 mpk administered once weekly for 4 weeks on melanogenesis was also examined since there may be utility in melanoma. To assess the effects on activated melanocytes which may better reflect a disease state, hair was depilated to activate melanogenesis. […] In the 10 mg/Kg cohort, SR-1 exposures were >8000-fold the UT-7 IC50.

[6] = tested on: melanocytes; test: Melanogenesis (hair pigmentation after depilation) in dose-ranging study; assay type: in vivo, monkeys
Description: as §2, §3

[7] = tested on: spermatogenesis; test: Spermatogenesis in dose-ranging study; assay type: in vivo, monkey
[8] = tested on: wound activated skin mast cells; test: Wound pharmacodynamic model of mast cell expansion in monkey; conditions: for inhibition of wound activated expansion of mast cells: 3 weeks
[9] = target: c-Kit (Homo sapiens, UniProt P10721); design: endogenous in cells; host or cells: MO7e cells; cultured human mast cells derived from bone marrow CD34+ cells; primary human CD34+ CD117+ bone marrow cells; UT-7 cells; conditions: Broudy, J Cell Physiol. 1994; cited from earlier work
Chain of c-Kit (P10721 26-976): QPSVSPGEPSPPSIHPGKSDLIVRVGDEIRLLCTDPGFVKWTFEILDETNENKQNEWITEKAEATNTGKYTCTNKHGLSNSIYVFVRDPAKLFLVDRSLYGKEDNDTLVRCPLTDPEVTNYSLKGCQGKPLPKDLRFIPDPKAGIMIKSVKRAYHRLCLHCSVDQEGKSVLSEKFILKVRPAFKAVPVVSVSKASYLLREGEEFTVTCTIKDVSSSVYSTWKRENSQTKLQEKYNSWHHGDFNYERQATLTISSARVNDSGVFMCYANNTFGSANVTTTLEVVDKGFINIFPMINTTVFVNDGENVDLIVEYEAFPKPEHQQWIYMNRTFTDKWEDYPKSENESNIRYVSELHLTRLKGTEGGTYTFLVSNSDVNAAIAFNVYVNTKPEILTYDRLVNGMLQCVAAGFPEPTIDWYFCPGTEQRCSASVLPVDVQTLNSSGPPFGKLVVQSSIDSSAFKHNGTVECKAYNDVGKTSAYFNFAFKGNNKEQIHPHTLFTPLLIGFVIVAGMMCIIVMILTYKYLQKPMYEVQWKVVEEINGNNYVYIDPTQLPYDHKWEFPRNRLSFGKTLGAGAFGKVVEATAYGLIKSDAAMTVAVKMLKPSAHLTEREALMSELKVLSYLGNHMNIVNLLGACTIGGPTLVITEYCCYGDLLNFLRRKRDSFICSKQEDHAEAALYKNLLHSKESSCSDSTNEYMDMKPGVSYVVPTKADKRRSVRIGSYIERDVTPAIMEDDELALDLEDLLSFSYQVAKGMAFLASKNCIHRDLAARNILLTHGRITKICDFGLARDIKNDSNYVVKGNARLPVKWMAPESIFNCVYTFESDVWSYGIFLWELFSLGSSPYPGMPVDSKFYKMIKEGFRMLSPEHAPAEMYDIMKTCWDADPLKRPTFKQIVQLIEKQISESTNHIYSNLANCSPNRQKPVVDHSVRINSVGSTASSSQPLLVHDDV

Chain of c-Kit dimer (P10721 26-509 limits assumed): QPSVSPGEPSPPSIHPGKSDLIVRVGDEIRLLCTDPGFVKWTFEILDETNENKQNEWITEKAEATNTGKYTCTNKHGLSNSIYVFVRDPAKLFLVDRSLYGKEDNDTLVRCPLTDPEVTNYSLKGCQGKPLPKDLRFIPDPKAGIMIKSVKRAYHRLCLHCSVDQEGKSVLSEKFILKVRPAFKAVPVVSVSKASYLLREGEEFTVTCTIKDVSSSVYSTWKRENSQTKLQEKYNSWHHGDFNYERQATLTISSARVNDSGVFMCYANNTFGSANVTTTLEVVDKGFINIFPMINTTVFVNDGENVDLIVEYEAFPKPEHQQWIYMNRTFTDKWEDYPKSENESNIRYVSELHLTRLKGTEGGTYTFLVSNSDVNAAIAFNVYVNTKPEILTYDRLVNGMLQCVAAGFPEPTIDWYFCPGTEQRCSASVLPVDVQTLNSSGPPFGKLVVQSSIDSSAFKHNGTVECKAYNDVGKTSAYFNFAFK

B1: SR-1: Murine anti-human c-Kit antibody; light chain SEQ ID NO: 8, muIgG2a heavy chain SEQ ID NO: 10 (antibody, listed as Homo sapiens)
heavy: MGWSCIILFLVATATGVHSQVQLQQPGAELVKPGASVKMSCKASGYTFTSYNMHWVKQTPGQGLEWIGVIYSGNGDTSYNQKFKGKATLTADKSSSTAYMQINSLTSEDSAVYYCARERDTRFGNWGQGTLVTVSAAKTTAPSVYPLAPVCGDTTGSSVTLGCLVKGYFPEPVTLTWNSGSLSSGVHTFPAVLQSDLYTLSSSVTVTSSTWPSQSITCNVAHPASSTKVDKKIEPRGPTIKPCPPCKCPAPNLLGGPSVFIFPPKIKDVLMISLSPIVTCVVVDVSEDDPDVQISWFVNNVEVHTAQTQTHREDYNSTLRVVSALPIQHQDWMSGKEFKCKVNNKDLPAPIERTISKPKGSVRAPQVYVLPPPEEEMTKKQVTLTCMVTDFMPEDIYVEWTNNGKTELNYKNTEPVLDSDGSYFMYSKLRVEKKNWVERNSYSCSVVHEGLHNHHTTKSFSRTPGK
light: METDTLLLWVLLLWVPGSTGNIVLTQSPASLAVSLGLRATISCRASESVDIYGNSFMHWYQQKPGQPPKLLIYLASNLESGVPARFSGSGSRTDFTLTIDPVEADDAATYYCQQNNEDPYTFGGGTKLEIKRADAAPTVSIFPPSSEQLTSGGASVVCFLNNFYPKDINVKWKIDGSERQNGVLNSWTDQDSKDSTYSMSSTLTLTKDEYERHNSYTCEATHKTSTSPIVKSFNRNEC
- affinity for c-Kit dimer compared to soluble c-Kit extra-cellular domain monomer [1]: 1000 fold
- functional potency at human c-Kit in CFU assay [2]: inhibition
- functional potency at monkey c-Kit in CFU assay [3]: inhibition
- Ctrough PK level as fold the UT-7 cellular IC50 ([4]; 3.0 mg/Kg once weekly, basal lung mast cell depletion): > 200 fold
- depletion of basal lung mast cells ([4]; 3.0 mg/Kg once weekly, day 28): depletion of basal lung mast cells was observed
- depletion of basal colon mast cells, time course ([4]; 3 mg/Kg to 30 mg/Kg once weekly, after 2 doses by day 14): maximally depleted
- Ctrough as fold the cell IC50 at depletion of basal mast cells ([4]; day 14): > 800 fold
- exposure levels as fold the UT-7 IC50 ([5]; 30 mg/Kg once weekly over 4 weeks): > 70,000 fold
- impact on hematological parameters ([5]; 3 to 30 mg/Kg once weekly for 4 weeks, versus control and baseline): No significant impact
- RBCs ([5]; 4 weeks after dosing started): non-significant decreases
- CD117 positive hematopoietic stem cells ([5]; bone marrow): no depletion
- bone marrow histopathological analysis ([5]; monkey, in vivo): no difference between drug treated and control cohorts
- exposures as fold the UT-7 IC50 ([6]; 10 mg/Kg cohort): > 8000 fold
- pigmentation of newly regrown hair ([6]; 10 mg/Kg cohort): No effect
- pigmentation of newly regrown hair ([6]; 30 mg/Kg dose): inhibition of hair pigmentation to variable degrees
- normal hair color of the coat ([6]; 3-30 mpk once weekly for 4 weeks, any cohort): not visibly affected
- exposure (fold the cell IC50) required before qualitative impacts on pigmentation of newly regrown hair ([6]; monkey, in vivo): > 8000 fold
- no effect dose on hair pigmentation ([6]; once weekly for 4 weeks): 10 to 30 mg/kg
- effect on spermatogenesis at lowest dose ([7]; 0.3 mg/Kg once weekly): less than the maximal effect; also recorded: sub-maximal effect
- exposure as fold the UT-7 IC50 ([7]; 0.3 mg/Kg once weekly): 7 fold and > 7 fold
- inhibition of spermatogenesis ([7]; 0.3-30 mg/Kg): dose-dependent inhibition
- recovery of spermatogenesis ([7]; 9 months, all dosed animals): Normal spermatogenesis
- inhibition of wound activated expansion of mast cells ([8]; 0.3 mpk dose): partial inhibition
- inhibition of wound activated expansion of mast cells ([8]; 1 and 3 mg/Kg cohorts): maximal efficacy
- effect on mast cells in wound activated model ([8]; FIG. 1): inhibits mast cells
- sustained Ctrough exposure (fold the IC50) required for maximal inhibition of wound-expanded mast cells ([8]; monkey, in vivo): > 7 fold
- minimal effective dose in the wound PD model ([8]; once weekly for 2 weeks in monkeys): < 0.3 mg/kg
- intrinsic activity at c-Kit [9]: some agonist-like activity
